Patent US20250154277A1 (CONCEPT TO MEDICINE BIOTECH, published 2025)
Where a chain is given by its changes, count along the chain named.

B1: Hu14G12-2 (antibody, V domains shown)
VH: EVQLVQSGAEVKKPGATVKISCKVSGYAFSSSWMNWVQQAPGKGLEWMGRIYREDGHTNYNGKFKGRVTITADTSTDTAYMELSSLRSEDTAVYYCATGGAMDYWGQGTLVTVSS
VL: DIQMTQSPSSLSASVGDRVTITCRASQDISNYLNWYQQKPGKAPKLLIYYTSRLHSGVPSRFSGSGSGTDYTFTISSLQPEDIATYFCQQDNTLPWTFGGGTKLEIK
notes: humanized
B2: Hu14G12-6 (antibody, V domains shown)
VH: B1 VH with M48I, Y95F, T98N
VL: B1 VL
notes: humanized
B3: Hu14G12-10 (antibody, V domains shown)
VH: B1 VH with Q38K, M48I, V68A, D77T, Y95F, T98N
VL: B1 VL
notes: humanized
B4: Hu14G12-14 (antibody, V domains shown)
VH: B1 VH with V24A, Q38K, M48I, V68A, D77T, T91S, Y95F, T98N
VL: B1 VL
notes: humanized
B5: Hu14G12-23 (antibody, V domains shown)
VH: B1 VH with E1Q, A16S, T17S, I20V, V24A, Q38R, K43Q, T74K, D77T, T98N
VL: B1 VL with L104V
notes: humanized
B6: Hu14G12-29 (antibody, V domains shown)
VH: QVQLVQSGAEVKKPGASVKVSCKASGYAFSSSWMNWVRQAPGQGLEWMGRIYREDGHTNYNGKFKGRVTMTADKSITTAYMELSRLRSDDTAVYYCANGGAMDYWGQGTLVTVSS
VL: B1 VL with F73L, L104V
notes: humanized
B7: Hu14G12-32 (antibody, V domains shown)
VH: B6 VH
VL: B1 VL with S10T, D70E, F73L, E81D, L104V
notes: humanized
B8: Hu14G12-37 (antibody, V domains shown)
VH: B6 VH with I76T, R85S, D89E
VL: B1 VL with S10T, D70E, F73L, E81D, L104V
notes: humanized
B9: Hu14G12-43 (antibody, V domains shown)
VH: B6 VH with I76T, S84R, R85S
VL: B1 VL with L104V
notes: humanized
B10: Hu14G12-44 (antibody, V domains shown)
VH: B6 VH with I76T, S84R, R85S
VL: B1 VL with F73L, L104V
notes: humanized
B11: Hu14G12-47 (antibody, V domains shown)
VH: B6 VH with I76T, S84R, R85S
VL: B1 VL with S10T, D70E, F73L, E81D, L104V
notes: humanized
B12: Hu14G12-1 (antibody, V domains shown)
VH: B1 VH
VL: B1 VL with Y71F, F87Y
notes: humanized
B13: Hu14G12-3 (antibody, V domains shown)
VH: B1 VH
VL: B1 VL with T22S, P44V, Y71F
notes: humanized
B14: Hu14G12-4 (antibody, V domains shown)
VH: B1 VH
VL: B1 VL with T22S, A43T, P44V
notes: humanized
B15: Hu14G12-5 (antibody, V domains shown)
VH: B1 VH with M48I, Y95F, T98N
VL: B1 VL with Y71F, F87Y
notes: humanized
B16: Hu14G12-7 (antibody, V domains shown)
VH: B1 VH with M48I, Y95F, T98N
VL: B1 VL with T22S, P44V, Y71F
notes: humanized
B17: Hu14G12-8 (antibody, V domains shown)
VH: B1 VH with M48I, Y95F, T98N
VL: B1 VL with T22S, A43T, P44V
notes: humanized
B18: Hu14G12-9 (antibody, V domains shown)
VH: B1 VH with Q38K, M48I, V68A, D77T, Y95F, T98N
VL: B1 VL with Y71F, F87Y
notes: humanized
B19: Hu14G12-11 (antibody, V domains shown)
VH: B1 VH with Q38K, M48I, V68A, D77T, Y95F, T98N
VL: B1 VL with T22S, P44V, Y71F
notes: humanized
B20: Hu14G12-12 (antibody, V domains shown)
VH: B1 VH with Q38K, M48I, V68A, D77T, Y95F, T98N
VL: B1 VL with T22S, A43T, P44V
notes: humanized
B21: Hu14G12-13 (antibody, V domains shown)
VH: B1 VH with V24A, Q38K, M48I, V68A, D77T, T91S, Y95F, T98N
VL: B1 VL with Y71F, F87Y
notes: humanized
B22: Hu14G12-15 (antibody, V domains shown)
VH: B1 VH with V24A, Q38K, M48I, V68A, D77T, T91S, Y95F, T98N
VL: B1 VL with T22S, P44V, Y71F
notes: humanized
B23: Hu14G12-16 (antibody, V domains shown)
VH: B1 VH with V24A, Q38K, M48I, V68A, D77T, T91S, Y95F, T98N
VL: B1 VL with T22S, A43T, P44V
notes: humanized
B24: Hu14G12-45 (antibody, V domains shown)
VH: B6 VH with I76T, S84R, R85S
VL: EIVMTQSPATLSLSPGERATLSCRASQDISNYLNWYQQKPGQAPRLLIYYTSRLHSGIPARFSGSGSGTDYTLTISSLEPEDIAVYFCQQDNTLPWTFGGGTKVEIK
notes: humanized
B25: Hu14G12-36 (antibody, V domains shown)
VH: B6 VH with I76T, R85S, D89E
VL: DIVMTQSPDSLAVSLGERATINCRASQDISNYLNWYQQKPGQPPKLLIYYTSRLHSGVPDRFSGSGSGTDYTLTISSLQAEDIAVYFCQQDNTLPWTFGGGTKVEIK
notes: humanized
B26: Hu14G12-26 (antibody, V domains shown)
VH: B6 VH with A16S, M70I, I76T, R85S, D89E
VL: B25 VL
notes: humanized
B27: Hu14G12-31 (antibody, V domains shown)
VH: B6 VH
VL: B25 VL
notes: humanized
B28: Hu14G12-41 (antibody, V domains shown)
VH: B6 VH with G44R, M70I, I76A, R85S, D89E
VL: B25 VL
notes: humanized
B29: Hu14G12-46 (antibody, V domains shown)
VH: B6 VH with I76T, S84R, R85S
VL: B25 VL
notes: humanized

biological target: T1, human 5T4-His protein (human, UniProt Q13641 32-355); assay: ELISA, coated 5T4-His
T1 construct: also called recombinant 5T4 protein (human 5T4-his tag); human 5T4 protein; not shown: His tag
T1 sequence (looked up): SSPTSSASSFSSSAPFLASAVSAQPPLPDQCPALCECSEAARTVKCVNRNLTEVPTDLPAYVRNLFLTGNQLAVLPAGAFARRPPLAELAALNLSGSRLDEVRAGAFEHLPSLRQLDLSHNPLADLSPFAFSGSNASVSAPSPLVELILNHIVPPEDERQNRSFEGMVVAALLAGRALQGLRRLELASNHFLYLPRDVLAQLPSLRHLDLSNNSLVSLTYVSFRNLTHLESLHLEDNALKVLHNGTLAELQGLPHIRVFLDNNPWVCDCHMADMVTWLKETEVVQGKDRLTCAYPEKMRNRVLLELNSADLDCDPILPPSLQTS
Method: To evaluate the binding activity of 14G12 humanized antibodies to human 5T4, the 14G12 chimeric antibody along with 14G12 humanized mAbs were subjected to ELISA test.
Briefly, microtiter plates were coated with human 5T4-His protein at 1 μg/ml in PBS, 100 μl/well at 4° C. overnight, then blocked with […]. Serial dilutions of antibodies were added to each well and incubated for 1 hour at 37° C. The plates were washed with PBS/Tween and then incubated with Goat Anti-Human IgG-HRP for 30 mins at 37° C. After washing, the plates were developed with TMB substrate and analyzed by spectrophotometer at OD 450 nm. As shown in FIG. 10 and Table 6, most of the humanized antibodies bound to human 5T4 at high activity.

Row | Binder | EC50
1 | B1 | 0.021 µg/mL
2 | B2 | 0.01 µg/mL
3 | B3 | 0.015 µg/mL
4 | B4 | 0.014 µg/mL
5 | B5 | 0.0071 µg/mL
6 | B6 | 0.0067 µg/mL
7 | B7 | 0.0093 µg/mL
8 | B8 | 0.011 µg/mL
9 | B9 | 0.0064 µg/mL
10 | B10 | 0.0075 µg/mL
11 | B11 | 0.014 µg/mL
12 | B12 | 0.021 µg/mL
13 | B13 | 0.026 µg/mL
14 | B14 | 0.019 µg/mL
15 | B15 | 0.014 µg/mL
16 | B16 | 0.015 µg/mL
17 | B17 | 0.015 µg/mL
18 | B18 | 0.012 µg/mL
19 | B19 | 0.015 µg/mL
20 | B20 | 0.019 µg/mL
21 | B21 | 0.018 µg/mL
22 | B22 | 0.014 µg/mL
23 | B23 | 0.017 µg/mL
24 | B24 | 0.0082 µg/mL
25 | B25 | 0.0068 µg/mL
26 | B26 | 0.0069 µg/mL
27 | B27 | 0.0084 µg/mL
28 | B28 | 0.0047 µg/mL
29 | B29 | 0.023 µg/mL

biological target: T1, human 5T4-His protein; assay: SPR Biacore, Protein A capture
Method: The binding of the 14G12 humanized antibodies to recombinant 5T4 protein (human 5T4-his tag) was tested with Biacore using a capture method. The mAbs were captured using Protein A chip. Serial dilution of human 5T4-his tag protein was injected over captured antibody for 120 s-180 s at a flow rate of 30 μl/min. The antigen was allowed to dissociate for 360 s-1000 s. All the experiments were carried out on a Biacore T200. Data analysis was carried out using the Biacore T200 evaluation software.

Row | Binder | Kd | koff | kon
30 | B1 | 21.5 nM | 0.00436 s⁻¹ | 203000 M⁻¹ s⁻¹
31 | B2 | 2.68 nM | 0.00077 s⁻¹ | 288000 M⁻¹ s⁻¹
32 | B3 | 2.42 nM | 0.000512 s⁻¹ | 212000 M⁻¹ s⁻¹
33 | B4 | 3.39 nM | 0.000701 s⁻¹ | 207000 M⁻¹ s⁻¹
34 | B5 | 2.58 nM | 0.000908 s⁻¹ | 352000 M⁻¹ s⁻¹
35 | B6 | 2.14 nM | 0.0011 s⁻¹ | 514000 M⁻¹ s⁻¹
36 | B7 | 2.76 nM | 0.000979 s⁻¹ | 355000 M⁻¹ s⁻¹
37 | B8 | 1.05 nM | 0.00142 s⁻¹ | 1.34e+06 M⁻¹ s⁻¹
38 | B9 | 0.844 nM | 0.0016 s⁻¹ | 1.89e+06 M⁻¹ s⁻¹
39 | B10 | 1.41 nM | 0.00197 s⁻¹ | 1.4e+06 M⁻¹ s⁻¹
40 | B11 | 2.1 nM | 0.000921 s⁻¹ | 438000 M⁻¹ s⁻¹
41 | B12 | 42.7 nM | 0.0121 s⁻¹ | 283000 M⁻¹ s⁻¹
42 | B13 | 27.5 nM | 0.0055 s⁻¹ | 200000 M⁻¹ s⁻¹
43 | B14 | 12.5 nM | 0.00267 s⁻¹ | 214000 M⁻¹ s⁻¹
44 | B15 | 5.88 nM | 0.00146 s⁻¹ | 248000 M⁻¹ s⁻¹
45 | B16 | 2.52 nM | 0.000846 s⁻¹ | 336000 M⁻¹ s⁻¹
46 | B17 | 1.36 nM | 0.000464 s⁻¹ | 340000 M⁻¹ s⁻¹
47 | B18 | 5.31 nM | 0.00107 s⁻¹ | 202000 M⁻¹ s⁻¹
48 | B19 | 2.17 nM | 0.000523 s⁻¹ | 241000 M⁻¹ s⁻¹
49 | B20 | 2.39 nM | 0.000655 s⁻¹ | 274000 M⁻¹ s⁻¹
50 | B21 | 6.12 nM | 0.00121 s⁻¹ | 198000 M⁻¹ s⁻¹
51 | B22 | 3.19 nM | 0.000837 s⁻¹ | 262000 M⁻¹ s⁻¹
52 | B23 | 1.85 nM | 0.000499 s⁻¹ | 269000 M⁻¹ s⁻¹
